This is an account of results in patent US20160033523A1 (NOVOZYMES BIOPHARMA DK A S, published 2016).

The labels stand for the following.
B1: Wild type pig serum albumin (ligand)
chain: DTYKSEIAHRFKDLGEQYFKGLVLIAFSQHLQQCPYEEHVKLVREVTEFAKTCVADESAENCDKSIHTLFGDKLCAIPSLREHYGDLADCCEKEEPERNECFLQHKNDNPDIPKLKPDPVALCADFQEDEQKFWGKYLYEIARRHPYFYAPELLYYAIIYKDVFSECCQAADKAACLLPKIEHLREKVLTSAAKQRLKCASIQKFGERAFKAWSLARLSQRFPKADFTEISKIVTDLAKVHKECCHGDLLECADDRADLAKYICENQDTISTKLKECCDKPLLEKSHCIAEAKRDELPADLNPLEHDFVEDKEVCKNYKEAKHVFLGTFLYEYSRRHPDYSVSLLLRIAKIYEATLEDCCAKEDPPACYATVFDKFQPLVDEPKNLIKQNCELFEKLGEYGFQNALIVRYTKKVPQVSTPTLVEVARKLGLVGSRCCKRPEEERLSCAEDYLSLVLNRLCVLHEKTPVSEKVTKCCTESLVNRRPCFSALTPDETYKPKEFVEGTFTFHADLCTLPEDEKQIKKQTALVELLKHKPHATEEQLRTVLGNFAAFVQKCCAAPDHEACFAVEGPKFVIEIRGILA
notes: also called PSA; pig SA
B2: Wild type rhesus monkey serum albumin (ligand)
chain: DTHKSEVAHRFKDLGEEHFKGLVLVAFSQYLQQCPFEEHVKLVNEVTEFAKTCVADESAENCDKSLHTLFGDKLCTVATLRETYGEMADCCAKQEPERNECFLQHKDDNPNLPPLVRPEVDVMCTAFHDNEATFLKKYLYEVARRHPYFYAPELLFFAARYKAAFAECCQAADKAACLLPKLDELRDEGKASSAKQRLKCASLQKFGDRAFKAWAVARLSQKFPKAEFAEVSKLVTDLTKVHTECCHGDLLECADDRADLAKYMCENQDSISSKLKECCDKPLLEKSHCLAEVENDEMPADLPSLAADYVESKDVCKNYAEAKDVFLGMFLYEYARRHPDYSVMLLLRLAKAYEATLEKCCAAADPHECYAKVFDEFQPLVEEPQNLVKQNCELFEQLGEYKFQNALLVRYTKKVPQVSTPTLVEVSRNLGKVGAKCCKLPEAKRMPCAEDYLSVVLNRLCVLHEKTPVSEKVTKCCTESLVNRRPCFSALELDEAYVPKAFNAETFTFHADMCTLSEKEKQVKKQTALVELVKHKPKATKEQLKGVMDNFAAFVEKCCKADDKEACFAEEGPKFVAASQAALA
notes: also called rmSA; rmSA Wt
B3: Wild type guinea pig serum albumin (ligand)
chain: EAHKSEIAHRFNDLGEGHFKGLVLITLSQHLQKSPFEEHVKLVNEVTDFAKACVADESAQNCGKAIATLFGDKVCAIPSLRETYGELADCCAKEDPDRVECFLQHKDDNPNLPPFERPEPEALCTAFKENNDRFIGHYLYEVSRRHPYFYAPELLYYAEKYKNALTECCEAADKAACLTPKLDAIKEKALVSSAQQRLKCASLQKFGERAFKAWSVARLSQKFPKAEFAEISTIVTSLTKVTKECCHGDLLECADDRQELAKYMCEHQDSISSKLKECCVKPTLQKAHCILEIQRDELPTELPDLAVDFVEDKEVCKNFAEAKDVFLGTFLYEYSRRHPEYSIGMLLRIAKGYEAKLEKCCAEADPHACYAKVFDELQPLIDEPKKLVQQNCELFDKLGEYGFQNALAVRYTQKAPQVSTPTLVEYARKLGSVGTKCCSLPETERLSCTENYLALILNRLCILHEKTPVSERVTKCCTESLVNRRPCFSALHVDETYVPKPFHADSFTFHADICTLPEKEKQVKKQMALVELVKHKPKASEEQMKTVMGDFAAFLKKCCDADNKEACFTEDGPKLVAKCQATLA
notes: also called GPSA; guinea pig SA
B4: Soluble guinea pig FcRn with guinea pig beta2-microglobulin, HIS-tagged (receptor)
chain: AENHLSLLYHLTAVSSPATGSPAFWVSGWLGPQQYLSYSSLRREAEPCGAWVWETQVSWYWEMETTDLKNKESLFLEALKALGGKGPYTLQGILGCELSPDNSSVPTALFALNGEDFMEFHPENGSWTGDWPEALSISKQWEKKAEVVSKEKTFLLSSCPQRLLDHLERSRRNLEWKEPPSMRLKARPGDAGFSVLTCSAFSFYPPELQLRFLHNGLAAGTGEGGFGPNGDGSFHAWSSLTVQRGDEHNYRCLVQHAGLPQPLSVELESPAGSS
b2m: VLHAPRVQVYSRHPAENGKQNFINCYVSGFHPPQIEVELLKNGKKIDNVEMSDLSFSKDWTFYLLVHAAFTPNDSDEYSCRVSHITLSEPKIVKWDPNK
notes: Synthesized by GeneArt, expressed in HEK cells; also called gpFcRn; gpFcRN; not shown: HIS-tag on the C-terminal of the beta-chain
B5: Soluble pig FcRn with pig beta2-microglobulin, HIS-tagged (Example 4) (receptor)
chain: ADNHRSLLYHLTAVSAPTPGAPAFWVSGWLGPQQYLSYNNLRAQAEPYGAWVWESQVSWYWEKETADLRNKQKLFLEALKTLEEGGPFTLQGLLGCELGPDNVSVPVATFALNGEEFMKFDTKLGTWDGEWPEARTIGSKWMQEPDAVNKEKTFLLYSCPHRLLGHLERGRGNLEWKEPPSMRMKARPGTAPGFSVLTCIAFSFYPPELQLRFLRNGLAAGSGESDIGPNGDGSFHAWSSLTVKSGDEHHYCCVVQHAGLAQPLTVEL
b2m: VARPPKVQVYSRHPAENGKPNYLNCYVSGFHPPQIEIDLLKNGEKMNAEQSDLSFSKDWSFYLLVHTEFTPNAVDQYSCRVKHVTLDKPKIVKWDRDH
notes: also called pFcRn; not shown: HIS-tag on the C-terminal of the beta-chain
B6: Wild type dog serum albumin (ligand)
chain: EAYKSEIAHRYNDLGEEHFRGLVLVAFSQYLQQCPFEDHVKLAKEVTEFAKACAAEESGANCDKSLHTLFGDKLCTVASLRDKYGDMADCCEKQEPDRNECFLAHKDDNPGFPPLVAPEPDALCAAFQDNEQLFLGKYLYEIARRHPYFYAPELLYYAQQYKGVFAECCQAADKAACLGPKIEALREKVLLSSAKERFKCASLQKFGDRAFKAWSVARLSQRFPKADFAEISKVVTDLTKVHKECCHGDLLECADDRADLAKYMCENQDSISTKLKECCDKPVLEKSQCLAEVERDELPGDLPSLAADFVEDKEVCKNYQEAKDVFLGTFLYEYARRHPEYSVSLLLRLAKEYEATLEKCCATDDPPTCYAKVLDEFKPLVDEPQNLVKTNCELFEKLGEYGFQNALLVRYTKKAPQVSTPTLVEVSRKLGKVGTKCCKKPESERMSCAEDFLSVVLNRLCVLHEKTPVSERVTKCCSESLVNRRPCFSGLEVDETYVPKEFNAETFTFHADLCTLPEAEKQVKKQTALVELLKHKPKATDEQLKTVMGDFGAFVEKCCAAENKEGCFSEEGPKLVAAAQAALV
notes: also called DSA

Assay [1] concerns the target T1, Soluble pig FcRn, GST-tagged, with human beta2-microglobulin (Example 2) (pig; Schistosoma japonicum; human, UniProt P08515 1-218 = GST).
T1 construct: also called pFcRn; spFcRn
Nature of the assay: SPR, albumin over immobilized GST-FcRn, pH 6.0, 1:1 model. The protocol:
(§1) SPR experiments were carried out using a Biacore 3000 instrument (GE Healthcare). Flow cells of CM5 sensor chips were coupled with soluble FcRn from one of the following species, human (shFcRn), rat (srFcRn), mouse (smFcRn), rhesus monkey (srmFcRn), dog (dFcRn) or pig (pFcRn) (˜900-2500 resonance units (RU)) using GE Healthcare amine coupling chemistry as per the manufacturer's instructions. The coupling was performed by injecting 2 or 10 μg/ml FcRn in 10 mM sodium acetate pH 5.0 (GE healthcare). Phosphate buffer (67 mM phosphate buffer, 0.15 M NaCl, 0.005% Tween 20) at pH 6.0) was used as running buffer and dilution buffer. Regeneration of the surfaces were done using injections of HBS-EP buffer (0.01 M HEPES, 0.15 M NaCl, 3 mM EDTA, 0.005% surfactant P20) at pH 7.4 (GE Healthcare). For determination of binding kinetics, serial dilutions of albumin (10-0.3 μM) were injected over immobilized receptors at a constant flow rate (50 μl/min) at 25° C. In all experiments, data were zero adjusted and the reference cell subtracted.

Assay [2] deals with T2, Soluble dog FcRn, GST-tagged, with human beta2-microglobulin (dog; Schistosoma japonicum; human, UniProt P08515 1-218 = GST).
T2 construct: also called dFcRn
Nature of the assay: SPR, albumin over immobilized GST-FcRn, pH 6.0, estimated from steady state. The method, then: as §1

The target of assay [3] is T2, Soluble dog FcRn, GST-tagged, with …. Nature of the assay: SPR, albumin over immobilized GST-FcRn, pH 6.0, 1:1 model. The method, then: as §1
In general terms: SPR reads the build-up and loss of mass on a sensor chip optically.

Assay [4] concerns the target T3, Soluble rhesus monkey FcRn, GST-tagged, with human beta2-microglobulin (rhesus monkey; Schistosoma japonicum; …, UniProt P08515 1-218 = GST).
T3 construct: also called srmFcRn; soluble rhesus macaque FcRn
The assay is described as above. The method, then: as §1

Assay [5] addresses B4. Put plainly: SPR, albumin over immobilized His-FcRn, pH 5.5, 1:1 Langmuir. The method, then:
as §1
(§2) The SPR assay was conducted with the following variations to the assay described in the Materials and Method section:
(§3) The soluble FcRn receptors were synthesized by GeneArt and expressed in HEK cells. The soluble FcRn contained a HIS-tag on the C-terminal of the Beta-chain instead of a GST on the heavy chain and the beta-chain used was the native beta-chain of the animal (see Materials and Method section for the corresponding sequences). The soluble FcRn was purified by a HIS trap column followed by an additional purification using an IgG column. The soluble FcRn receptor was diluted to 20 μg/mL. The phosphate buffer used as running buffer in the SPR assay was at pH 5.5 instead of pH 6.0. […] 1:1 Langmuir or Steady state model was used.

The target of assay [6] is T4, N-terminally c-myc tagged albumin variant K573P (human, UniProt P02768 25-609).
T4 construct: Substitution numbered on mature HSA, not on the tagged chain; also called c-myc-K573P
T4 sequence (P02768 other isoform, or with tags, fused parts or gaps K573P K573P): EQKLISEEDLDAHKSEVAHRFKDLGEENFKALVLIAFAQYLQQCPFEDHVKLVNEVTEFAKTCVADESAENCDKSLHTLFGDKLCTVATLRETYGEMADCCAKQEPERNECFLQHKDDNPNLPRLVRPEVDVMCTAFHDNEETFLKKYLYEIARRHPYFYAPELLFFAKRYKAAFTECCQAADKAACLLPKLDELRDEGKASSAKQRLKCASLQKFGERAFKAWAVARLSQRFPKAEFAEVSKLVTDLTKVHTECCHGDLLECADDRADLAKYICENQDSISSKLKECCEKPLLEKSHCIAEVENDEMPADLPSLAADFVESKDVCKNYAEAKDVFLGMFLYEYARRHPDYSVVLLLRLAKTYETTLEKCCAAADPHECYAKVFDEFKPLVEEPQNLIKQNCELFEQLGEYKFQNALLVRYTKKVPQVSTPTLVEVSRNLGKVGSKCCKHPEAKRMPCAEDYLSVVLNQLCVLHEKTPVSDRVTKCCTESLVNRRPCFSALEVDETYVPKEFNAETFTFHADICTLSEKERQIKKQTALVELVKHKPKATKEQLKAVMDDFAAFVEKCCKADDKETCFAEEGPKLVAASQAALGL
Described as above. The method, then: as §1, §2, §3

Assay [7] deals with T5, HSA K573P (human, UniProt P02768 25-609).
T5 construct: Variant of mature HSA
T5 sequence (P02768 25-609 K597P): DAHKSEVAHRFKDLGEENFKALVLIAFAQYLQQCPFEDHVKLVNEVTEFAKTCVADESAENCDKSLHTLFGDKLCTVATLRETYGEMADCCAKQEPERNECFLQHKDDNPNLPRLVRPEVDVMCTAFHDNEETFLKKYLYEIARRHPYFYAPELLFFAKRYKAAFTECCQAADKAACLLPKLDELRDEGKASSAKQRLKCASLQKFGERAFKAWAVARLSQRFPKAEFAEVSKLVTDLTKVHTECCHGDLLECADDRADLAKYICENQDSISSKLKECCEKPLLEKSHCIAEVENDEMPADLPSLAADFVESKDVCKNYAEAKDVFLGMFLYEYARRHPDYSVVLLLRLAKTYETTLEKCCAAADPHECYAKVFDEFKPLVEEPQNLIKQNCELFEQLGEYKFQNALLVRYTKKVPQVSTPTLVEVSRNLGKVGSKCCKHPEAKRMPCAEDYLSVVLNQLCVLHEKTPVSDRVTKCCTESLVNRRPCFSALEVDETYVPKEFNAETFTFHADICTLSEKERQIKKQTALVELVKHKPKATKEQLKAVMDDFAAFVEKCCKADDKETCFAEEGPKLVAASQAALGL
The assay is described as above. The protocol:
as §1, §2, §3

Assay [8] deals with B1. Nature of the assay: SPR, albumin over immobilized His-FcRn, pH 5.5, steady state. The method, then: as §1, §2, §3
Assay [9] concerns the target T6, Wild type human serum albumin (human, UniProt P02768 25-609).
T6 construct: also called HSA; HSA Wt
The description is as above. The method, then: as §1, §2, §3

Assay [10] has as its target T7, N-terminally c-myc tagged Wt HSA (human, UniProt P02768 25-609).
T7 construct: Secreted from yeast; a +2058 Da miscleaved leader species was reduced to below 5%; also called c-myc-HSA Wt; Cmyc-WT HSA
Described as above. The protocol: as §1, §2, §3

T6 sequence (P02768 25-609): as the sequence (P02768 25-609 K597P) above, with P573K counted along it
T7 sequence (P02768 other isoform, or with tags, fused parts or gaps): as the sequence (P02768 other isoform, or with tags, fused parts or gaps K573P K573P) above, with P583K counted along it

The term Kd denotes the constant that tells how readily two partners part at equilibrium. What is called koff is a measure of how fast the partners let go of each other. For orientation: kon means a measure of how fast the partners come together. In [1], B1 displayed an equilibrium dissociation constant (Kd) of 2700 nM, a dissociation rate constant (koff) of 0.053 s⁻¹ and a kon of 20000 M⁻¹ s⁻¹. For the same molecule, in assay [2], the dissociation constant Kd was 23000 nM.
For B2, the Kd in [3] amounted to 1540 nM; in assay [1], 1200 nM; in assay [4], 2400 nM. Moreover, the koff in assay [3] was 0.02 s⁻¹; in [1] it was 0.012 s⁻¹; in assay [4], 0.013 s⁻¹. The results for the kon in assay [3], in [1] and in assay [4] were 13000 M⁻¹ s⁻¹, 10000 M⁻¹ s⁻¹ and 5300 M⁻¹ s⁻¹, respectively.
In [5], B3 had a Kd of 1100 nM, a koff of 0.0419 s⁻¹ and a kon of 36200 M⁻¹ s⁻¹.
Take B4: in [6], the dissociation constant (Kd) was determined as 360000 nM, the dissociation rate constant (koff) is 0.181 s⁻¹ and the kon stood at 500 M⁻¹ s⁻¹. In assay [7], this molecule had a Kd of 190000 nM, an off-rate constant (koff) of 0.297 s⁻¹ and a kon of 1500 M⁻¹ s⁻¹.
As for B5, the equilibrium dissociation constant (Kd) in [8] came out at 210000 nM; in assay [9], 232000 nM; in [10], 468000 nM; in assay [6] it was 1300 nM; in [7], 1900 nM. The koff in assay [6] stood at 0.0401 s⁻¹; in assay [7], 0.0622 s⁻¹. The kon was 31200 M⁻¹ s⁻¹ in [6] and 32700 M⁻¹ s⁻¹ in [7].
In assay [3], B6 yielded a dissociation constant (Kd) of 280 nM, a koff of 0.0034 s⁻¹ and a kon of 12000 M⁻¹ s⁻¹. In assay [1], this molecule had a Kd of 1400 nM, an off-rate (koff) of 0.013 s⁻¹ and a kon of 9200 M⁻¹ s⁻¹.
